Among the data in the Human Domainome abundance scans (Beltran et al. 2025) are abundance fitness values, retold here.

First the molecules themselves.
B1: Myocardin-related transcription factor A, residues 341 to 383; numbered along this chain, Q969V6 (parent)
chain: GALPANLDDMKVAELKQELKLRSLPVSGTKTELIERLRAYQDQ

± gives the uncertainty stated by the source.

The variants in the data set derive from B1. Nature of the data set: abundance fitness (aPCA) (normalised: wild type 0, dead -1); higher = more abundant; growth selection in yeast, the domain comes from the species named. Particulars: Homo sapiens.
Consider GALPANLDDMKVAELKQELKLRSLPPSGTKTELIERLRAYQDQ, for which the abundance fitness amounted to 0.191 ± 0.084.

With GALPANLDDMKVAELKQELKLRSLPHSGTKTELIERLRAYQDQ, the abundance fitness is -0.265 ± 0.15.

Regarding GALPANLDDMKVAELKQELKLRSDPVSGTKTELIERLRAYQDQ, the abundance fitness is -0.835 ± 0.19.

Turning to GALPANLDDMKVAELKQELKLRSQPVSGTKTELIERLRAYQDQ, the abundance fitness was -0.07 ± 0.13.

Take GALPANLDDMKVAELKQELKLRSMPVSGTKTELIERLRAYQDQ: the abundance fitness was -0.091 ± 0.078.

As to GALPANLDDMKVAELKQELKLRSVPVSGTKTELIERLRAYQDQ, the abundance fitness was -0.342 ± 0.075.

For the variant GALSANLDDMKVAELKQELKLRSLPVSGTKTELIERLRAYQDQ, the abundance fitness is 0.245 ± 0.065.

With GALGANLDDMKVAELKQELKLRSLPVSGTKTELIERLRAYQDQ, the abundance fitness came to 0.217 ± 0.064.

As to GALAANLDDMKVAELKQELKLRSLPVSGTKTELIERLRAYQDQ, the abundance fitness came out at 0.079 ± 0.059.

GALTANLDDMKVAELKQELKLRSLPVSGTKTELIERLRAYQDQ: the abundance fitness was determined as 0.243 ± 0.078.

Turning to GAHPANLDDMKVAELKQELKLRSLPVSGTKTELIERLRAYQDQ, the abundance fitness came to 0.426 ± 0.1.

Regarding GALPANLDDMKVAELKQELKLRSLKVSGTKTELIERLRAYQDQ, the abundance fitness was -0.135 ± 0.1.

With GALPANLDDMKVAELKQELKLRSLPVSGTKTELIERLRAYHDQ, the abundance fitness is -0.125 ± 0.1.

For GALPANLDDMKVAELKQELKLRSLPVSGTKTELIERLRAYQLQ, the abundance fitness was -0.081 ± 0.072.

As to GALPANLDDMKVAELKQELKLRSLPVSGTKTELIERLRAYQTQ, the abundance fitness was 0.037 ± 0.12.

For the variant GALPANLDDMKVAELKQELKLRSLPVSGTKTELIERLRAYQCQ, the abundance fitness was 0.045 ± 0.16.

Regarding GALPANLDDMKVAELKQELKLRSLPVSGTKTELIERLRAYQEQ, the abundance fitness amounted to 0.137 ± 0.11.

Regarding GALPANLDDMKVAELKQELELRSLPVSGTKTELIERLRAYQDQ, the abundance fitness turned out to be 0.145 ± 0.08.

As to GALPANLDDMKVAELKQELHLRSLPVSGTKTELIERLRAYQDQ, the abundance fitness is -0.342 ± 0.18.

Take GALPANLDDMKVAELKQELCLRSLPVSGTKTELIERLRAYQDQ: the abundance fitness is 0.309 ± 0.13.

GALPANLDDMKVAELKQELRLRSLPVSGTKTELIERLRAYQDQ: the abundance fitness was 0.011 ± 0.06.

Consider GALPANLDDMKVAELKQELMLRSLPVSGTKTELIERLRAYQDQ, for which the abundance fitness was determined as 0.044 ± 0.098.

As to GALPANLDDMKVAELKQELTLRSLPVSGTKTELIERLRAYQDQ, the abundance fitness was -0.145 ± 0.1.

On to GALPANLDDMKVAELKQELKLRSLPVSGTKTPLIERLRAYQDQ, for which the abundance fitness was -0.533 ± 0.1.

Regarding GALPANLDDMKVAELKQELKLRSLPVSGTKTILIERLRAYQDQ, the abundance fitness is -0.149 ± 0.12.

Turning to GALPANLDDMKVAELKQELKLRSLPVRGTKTELIERLRAYQDQ, the abundance fitness was -0.186 ± 0.064.

For the variant GALPANLDDMKVAELKQELKLRSLPVEGTKTELIERLRAYQDQ, the abundance fitness is 0.043 ± 0.1.

As for GALPANLDDMKIAELKQELKLRSLPVSGTKTELIERLRAYQDQ, the abundance fitness is -0.177 ± 0.13.

For the variant GALPANLDDMKAAELKQELKLRSLPVSGTKTELIERLRAYQDQ, the abundance fitness was -0.029 ± 0.13.

For the variant GALPANLDDMKNAELKQELKLRSLPVSGTKTELIERLRAYQDQ, the abundance fitness was -0.647 ± 0.11.

Consider GALPANLDDMKVAELKQELKLRSLPVSGTKTELIERLRALQDQ, for which the abundance fitness was -0.062 ± 0.077.

For the variant GALPANLDDMKVAELKQELKLRSLPVSGTKTELIERLRADQDQ, the abundance fitness is 0.308 ± 0.074.

On to GALPANLDDMKVAELKQELKLRSLPVSGTKTELIERLRANQDQ, for which the abundance fitness is 0.127 ± 0.075.

As to GALPANLDDMKVAELKQELKLRSLPVSGTKTELIERLRAKQDQ, the abundance fitness is -0.103 ± 0.12.

GALPANLDDMKVAELKQEWKLRSLPVSGTKTELIERLRAYQDQ: the abundance fitness was -0.911 ± 0.23.

Regarding GALPANLDDMKVAELKQETKLRSLPVSGTKTELIERLRAYQDQ, the abundance fitness is -0.391 ± 0.11.

On to GALPANLDDMKVAELKQELKLRSLPVSGTKIELIERLRAYQDQ, for which the abundance fitness is 0.092 ± 0.12.

On to GALPANLDDMKVAELKQELKLRSLPVSGTKSELIERLRAYQDQ, for which the abundance fitness was -0.061 ± 0.07.

For the variant GALPANLDDMKVAELKQELKLRSLPVSGTKGELIERLRAYQDQ, the abundance fitness is -0.011 ± 0.06.

In the case of GALPANLDDMKVAELKQELKLRSLPVSGTKVELIERLRAYQDQ, the abundance fitness is -0.035 ± 0.065.

GALPANLDDMKVAELKQELKLRSLPVSGTKWELIERLRAYQDQ: the abundance fitness was -0.246 ± 0.063.

As for GALPANLDDMKVAELKQELKQRSLPVSGTKTELIERLRAYQDQ, the abundance fitness was found to be 0.061 ± 0.1.

For GALPANLDDMKVAELKQELKFRSLPVSGTKTELIERLRAYQDQ, the abundance fitness was -0.177 ± 0.091.

With GALPANLDDMKVAELKQELKLRSLPVSGTKTELIERLSAYQDQ, the abundance fitness is -0.126 ± 0.081.

Regarding GALPANLDDMKVAELKQELKLRSLPVSGTKTELIERLFAYQDQ, the abundance fitness was -0.626 ± 0.2.

As to GALPANLDDMKVAELKQELKLRSLPVSGTKTELIERNRAYQDQ, the abundance fitness is -0.327 ± 0.12.

Turning to GALPANLDDMKVAELKQELKLRSLPVSGTKTELIERSRAYQDQ, the abundance fitness was -0.419 ± 0.08.

As for GALPANLDDMKVAELKQELKLRSLPVSGTKTELIERRRAYQDQ, the abundance fitness was -0.462 ± 0.072.

With GALPANLDDMKVAELKQELKLRSLPVSGTKTELIERCRAYQDQ, the abundance fitness is -0.404 ± 0.13.

As to GALPANLDDMKVAELKQELKLRSLPVSGSKTELIERLRAYQDQ, the abundance fitness is -0.084 ± 0.072.

Turning to GALPANLDDMKVAELKQELKLRSLPVSGMKTELIERLRAYQDQ, the abundance fitness is -0.447 ± 0.081.

Turning to GALPANLDDMKVAEWKQELKLRSLPVSGTKTELIERLRAYQDQ, the abundance fitness is -1.38 ± 0.15.

For GALPANLDDMKVAEEKQELKLRSLPVSGTKTELIERLRAYQDQ, the abundance fitness was -0.604 ± 0.14.

With GALPANLDDMKVAERKQELKLRSLPVSGTKTELIERLRAYQDQ, the abundance fitness is -0.831 ± 0.14.

Consider GALPENLDDMKVAELKQELKLRSLPVSGTKTELIERLRAYQDQ, for which the abundance fitness stood at 0.216 ± 0.089.

For GALPLNLDDMKVAELKQELKLRSLPVSGTKTELIERLRAYQDQ, the abundance fitness is 0.045 ± 0.071.

GALPINLDDMKVAELKQELKLRSLPVSGTKTELIERLRAYQDQ: the abundance fitness was found to be 0.249 ± 0.14.

Consider GALPANLDDMKVAELKQELKLRSLPVSGTKTELTERLRAYQDQ, for which the abundance fitness is -0.151 ± 0.1.

As to GALPANLDDMKVAELKQELKLRSLPVSGTKTELGERLRAYQDQ, the abundance fitness is -0.305 ± 0.074.
